# Bridge positions count the residues as written; N and C are the ends. Ends that are not written are not given here.
# Molecular target: bovine trypsin (bovine, UniProt P00760 24-246)
# Test: trypsin inhibition, BApNA substrate
# Method: The substrates N-succinyl-Ala-Ala-Pro-Phe-p-nitroaniline (AAPFpNA), Nα—Benzoyl-L-arginine-4-nitroaniline hydrochloride (BApNA) and N-succinyl-[…] (AAApNA) are used in competitive binding reaction to determine the inhibitory activities against α-chymotrypsin, bovine trypsin, and porcine pancreatic elastase, respectively. Experiments for α-chymotrypsin and bovine trypsin inhibition were measured in 20 mM CaCl₂, 50 mM Tris-HCl buffer (pH 7.8), and that for porcine elastase inhibition was measured in 50 mM Tris-HCl buffer (pH 8.0). The concentration of the peptide was measured using optical density (OD) at 280 nm. The Michaelis constant (Kₘ) of the enzyme hydrolysis substrate is calculated from the initial rate of substrate hydrolysis at 405 nm. The absorbance value of the substrate was measured at 405 nm after complete hydrolysis. All data were processed using nonlinear regression.
# (1) Added a total 190 μL of reaction buffer (20 mM CaCl₂ and 50 mM Tris-HCl, pH 7.8) along with different concentrations of anti-trypsin peptides (BTs) into the pre-cooled 96-well plate, followed by preheating at 37° C., and spined down at 500 rpm for 5 min. Next added 10 μL of 1 μM trypsin, incubated at 37° C., and then spined down at 500 rpm for 10 min. Finally, added 5 μL of 50 mM BApNA, and mixed by centrifugation at 500 rpm for 1 min. […] The experiment was performed in triplicate. The blank control only contained the reaction buffer and the substrate as the minimum absorption value (Min OD_{405 nm}). The negative control only contained the reaction buffer, the enzyme and the substrate as the maximum absorption value (Max OD_{405 nm}). […] (2) In the reaction system of 205 μL, the final concentrations of trypsin and BApNA were 50 nM and 1.22 mM, respectively. [0456] (3) Data statistics
# Chain of bovine trypsin (P00760 24-246): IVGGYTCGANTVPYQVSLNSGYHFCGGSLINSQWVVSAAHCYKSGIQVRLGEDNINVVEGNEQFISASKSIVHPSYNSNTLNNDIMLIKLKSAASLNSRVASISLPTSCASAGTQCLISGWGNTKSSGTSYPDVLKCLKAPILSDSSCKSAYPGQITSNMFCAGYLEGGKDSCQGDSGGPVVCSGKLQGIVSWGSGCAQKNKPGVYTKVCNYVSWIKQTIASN
Binder,IC50 [nM],Ki [nM],fold decrease in inhibitory activity compared to BT9 [fold]
RCTKSIPPQCH (disulfide 2-10 (inferred)) [BT63],90,20,
RCTKSLPPQCS (disulfide 2-10 (inferred)) [BT65],620,130,
ACTKSNPPQCR (disulfide 2-10 (inferred)) [BT68],2430,520,
CGRATKSIPPICF (disulfide 1-12 (inferred)) [BT9],70,10,
CGRQTKSIPPICF (disulfide 1-12 (inferred)) [BT54],60,10,
CGRLTKSIPPICF (disulfide 1-12 (inferred)) [BT48],180,40,
CGRATKAIPPICF (disulfide 1-12 (inferred)) [BT27],280,60,
CPRATKSIPPICF (disulfide 1-12 (inferred)) [BT66],60,10,
CGRATKSLPAICF (disulfide 1-12 (inferred)) [BT16],910,190,
CSRATKSIPPICF (disulfide 1-12 (inferred)) [BT75],40,8.5,
CERATKSIPPICF (disulfide 1-12 (inferred)) [BT78],30,6.4,
CGTATKSIPPICN (disulfide 1-12 (inferred)) [BT24],33900,7220,
CGRATRSIPPICA (disulfide 1-12 (inferred)) [BT19],43400,9250,
CGRSTKSIPPICF (disulfide 1-12 (inferred)) [BT47],50,10,
CGRITKSIPPICF (disulfide 1-12 (inferred)) [BT49],500,110,
CGRATKSIPAICF (disulfide 1-12 (inferred)) [BT10],110,20,
CGRWTKSIPPICF (disulfide 1-12 (inferred)) [BT57],130,30,
CGRATRSIPPACF (disulfide 1-12 (inferred)) [BT15],4490,960,
CVRATKSIPPICF (disulfide 1-12 (inferred)) [BT71],110,20,
CIRATKSIPPICF (disulfide 1-12 (inferred)) [BT73],120,30,
CGRATRSIPPICY (disulfide 1-12 (inferred)) [BT18],39400,8380,
CGRFTKSIPPICF (disulfide 1-12 (inferred)) [BT52],130,30,
CLRATKSIPPICF (disulfide 1-12 (inferred)) [BT72],130,30,

Binder,IC50 [nM],Ki [nM],fold decrease in inhibitory activity compared to BT9 [fold]
CGRYTKSIPPICF (disulfide 1-12 (inferred)) [BT53],120,30,
CKRATKSIPPICF (disulfide 1-12 (inferred)) [BT77],40,8.5,
CGRNTKSIPPICF (disulfide 1-12 (inferred)) [BT55],300,60,
CGTATKSIPPICF (disulfide 1-12 (inferred)) [BT25],970,210,
CGRHTKSIPPICF (disulfide 1-12 (inferred)) [BT56],110,20,
CQRATKSIPPICF (disulfide 1-12 (inferred)) [BT79],50,10,
CGRATRAIPPICF (disulfide 1-12 (inferred)) [BT22],4680,1000,
CGRATRSAPPICF (disulfide 1-12 (inferred)) [BT21],18100,3850,
CGRPTKSIPPICF (disulfide 1-12 (inferred)) [BT59],26300,5590,
CGRAAKSIPPICF (disulfide 1-12 (inferred)) [BT26],2500,530,
CGRETKSIPPICF (disulfide 1-12 (inferred)) [BT58],120,30,
CARATKSIPPICF (disulfide 1-12 (inferred)) [BT67],50,10,
CGRATRSIPPICF (disulfide 1-12 (inferred)) [BT17],580,120,~12
CRRATKSIPPICF (disulfide 1-12 (inferred)) [BT76],50,10,
CGRVTKSIPPICF (disulfide 1-12 (inferred)) [BT51],410,90,
CGRGTKSIPPICF (disulfide 1-12 (inferred)) [BT60],430,90,
RCTKSNPPQCQ (disulfide 2-10 (inferred)) [BT64],3430,730,
RCTRSIPPHCW (disulfide 2-10 (inferred)) [BT61],890,190,
"RCTKSIPPICF (disulfide 2-10 (inferred), also called truncated monocyclic SFTI-1 mutant) [BT45]",30,6.4,
RCTKSIPPHCF (disulfide 2-10 (inferred)) [BT62],70,10,
CGRATKSIPPICFPD (disulfide 1-12 (inferred)) [BT5],160,30,
CGSATKSIPPICFPD (disulfide 1-12 (inferred)) [BT6],290,60,
CGAATKSIPPICFPD (disulfide 1-12 (inferred)) [BT7],230,50,

# Reference: patent publication US20230416329A1 (INSTITUTE OF MATERIA MEDICA CHINESE ACADEMY OF MEDICAL …, published 2023)
